Assay [1] addresses Bluetongue virus (BTV) receptor-binding outer-layer protein VP2, as trimer on the virion (bluetongue virus (BTV)). Kind of assay: cryo-EM structure.
The target of assay [2] is Bluetongue virus (BTV) membrane penetration outer-layer protein VP5, as trimer on the virion (bluetongue virus (BTV)). Kind of assay: cryo-EM structure.
Assay [3] has the same target. The assay is described as follows: […].
Assay [4] deals with Bluetongue virus (BTV) middle-layer core protein VP7, as trimer on the virion (bluetongue virus (BTV)). Kind of assay: cryo-EM structure.

With “Bluetongue virus (BTV) receptor-binding outer-layer protein VP2, as trimer on the virion (natural protein)”, the stoichiometry N in assay [1] was determined as 3. Regarding “Bluetongue virus (BTV) membrane penetration outer-layer protein VP5, as trimer on the virion (natural protein)”, the stoichiometry N in assay [2] and in assay [3] was 3 each time.

Turning to “Bluetongue virus (BTV) middle-layer core protein VP7, as trimer on the virion (natural protein)”, in assay [4], the stoichiometry N is 3.

The term stoichiometry N denotes the number of molecules, sites or subunits per partner or assembly.

(Values after PMC5669276.)
